According to CN113845595A (FUZHOU MAIXIN BIOTECHNOLOGY DEV CO LTD, dated 2021):

Biological target: T1, GH蛋白 (垂体瘤组织中的内源GH) (human, UniProt P01241 27-217)
T1 construct: Endogenous antigen detected by immunohistochemistry in pituitary tumour samples; also called 人GH蛋白
Test: immunohistochemistry on 9 pituitary tumour samples

T1 sequence (P01241 27-217 limits assumed): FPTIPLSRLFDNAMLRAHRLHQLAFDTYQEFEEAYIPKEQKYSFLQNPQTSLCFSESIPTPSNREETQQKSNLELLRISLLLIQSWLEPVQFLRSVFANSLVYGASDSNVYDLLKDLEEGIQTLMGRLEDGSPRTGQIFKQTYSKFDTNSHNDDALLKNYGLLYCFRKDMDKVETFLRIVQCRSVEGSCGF

B1: 抗GH蛋白单克隆抗体(9D5D2A9) (antibody, V domains shown)
VH: QVQLKESGPGLVAPSQSLSITCTVSGFSLTNYGIHWVRQPPGKGLEWLGLIWSGGSTKYNSALMSRLSISRDNSKSQVFLKMNSLQSDDTAMYYCVRDELYAYWGQGTLVTVSA
VL: DIVMTQSHKFMSTSVGDRVSITCKASQDVGPTVAWYQQKPGQSPKLLIYWASTRHTGVPDRFTGSGYGTDFTLTISNVQSEDLADYFCQQYSSYPFTFGSGTKLEIK
notes: also called GH单克隆抗体; CGMCC NO.22315
B1: binds.
